Measurements reported in publication PMC11528095, “PCDH10 is a neuronal receptor for western equine encephalitis virus” (Cell Research, 2024).

Target: T1, His-tagged soluble human PCDH10 (human)
T1 construct: also called sohPCDH10; sohPCDH10-His
Test: BLI
Details: both partners purified

B1: WEEV virus-like particles (spike E2-E1) (complex)
chain 1: SITDDFTLTSPYLGFCPYCRHSAPCFSPIKIENVWDESDDGSIRIQVSAQFGYNQAGTADVTKFRYMSFDHDHDIKEDSMDKIAISTSGPCRRLGHKGYFLLAQCPPGDSVTVSITSGASENSCTVEKKIRRKFVGREEYLFPPVHGKLVKCHVYDHLKETSAGYITMHRPGPHAYKSYLEEASGEVYIKPPSGKNVTYECKCGDYSTGIVSTRTKMNGCTKAKQCIAYKSDQTKWVFNSPDLIRHTDHSVQGKLHIPFRLTPTVCPVPLAHTPTVTKWFKGITLHLTATRPTLLTTRKLGLRADATAEWITGTTSRNFSVGREGLEYVWGNHEPVRVWAQESAPGDPHGWPHEIIIHYYHRHPVYTVIVLCGVALAILVGTASSAACIAKARRDCLTPYALAPNATVPTALAVLCCIRPTNA
chain 2: FEHATTVPNVPGIPYKALVERAGYAPLNLEITVVSSELTPSTNKEYVTCRFHTVIPSPQVKCCGSLECKASSKADYTCRVFGGVYPFMWGGAQCFCDSENTQLSEAYVEFAPDCTIDHAVALKVHTAALKVGLRIVYGNTTAHLDTFVNGVTPGSSRDLKVIAGPISAAFSPFDHKVVIRKGLVYNYDFPEYGAMKPGAFGDIQASSLDATDIVARTDIRLLKPSVKNIHVPYTQAVSGYEMWKNNSGRPLQETAPFGCKIEVEPLRASNCAYGHIPISIDIPDAAFVRSSESPTILEVSCTVADCIYSADFGGSLTLQYKADREGHCPVHSHSTTAVLKEATTHVTAVGSITLHFSTSSPQANFIVSLCGKKTTCNAECKPPADHIIGEPHKVDQEFQAAVSKTSWNWLLALFGGASSLIVVGLIVLVCSSMLINTRR
In the case of B1, the Kd is reported as 4.66 nM.
